This passage reports tumor-suppressive effect results from US12319931B2, “Oncolytic virus expressing interferon and application therefor” (SHANGHAI YUANSONG BIOTECHNOLOGY CO. LTD., priority 2018, dated 2025).

The test system of the assay is HCC1806 xenograft tumor. Put plainly: HCC1806 xenograft tumor model in nude mice. The class given is in vivo. As to conditions: virus intratumoral 1.5×10^10 VP/time/mouse, rIFN intraperitoneal 20 μg/time/mouse, 5 times. On the procedure:
When the experimental nude mice reached 5 weeks old, they were injected with 2×10^6 HCC1806 tumor cells for tumor formation. […] The tumor size was observed and measured every 3 days after administration of oncolytic virus.
Specifically, the triple negative breast cancer cell line HCC1806 xenograft tumor of nude mice with less immune cell infiltration were used for in vivo drug efficacy testing. […] The tumor size was measured every three days.

B1: recombinant interferon protein: consensus interferon rIFN protein; synthetic interferon with roughly the average sequence of human interferon-α subtypes (protein)
chain 1: MALSFSLLMAVLVLSYKSICSLGMCDLPQTHSLGNRRALILLAQMRRISPFSCLKDRHDFGFPQEEFDGNQFQKAQAISVLHEMIQQTFNLFSTKDSSAAWDESLLEKFYTELYQQLNDLEACVIQEVGVEETPLMNVDSILAVKKYFQRITLYLTEKKYSPCAWEVVRAEIMRSFSLSTNLQERLRRKE
chain 2: MALSFSLLMAVLVLSYKSICSLGMCDLPQTHSLGNRRALILLAQMRRISPFSCLKDRHDFGFPQEEFDGNQFQKAQAISVLHEMIQQTFNLFSTKDSSAAWDESLLEKFYTELYQQLNDLEACVIQEVGVEETPLMNVDSILAVKKYFQRITLYLTEKKYSPCAWEVVRAEIMRSFSLSTNLQERLRRKE
chain 3: MALSFSLLMAVLVLSYKSICSLGMCDLPQTHSLGNRRALILLAQMRRISPFSCLKDRHDFGFPQEEFDGNQFQKAQAISVLHEMIQQTFNLFSTKDSSAAWDESLLEKFYTELYQQLNDLEACVIQEVGVEETPLMNVDSILAVKKYFQRITLYLTEKKYSPCAWEVVRAEIMRSFSLSTNLQERLRRKE
modifications: consensus interferon coding sequence IFN-1; consensus interferon coding sequence IFN-2; consensus interferon coding sequence IFN-3
For the molecule B1, the tumor-suppressive effect result is on record as “no obvious tumor-suppressive effect”.
